According to PMC5928908 (Theranostics, 2018):

Target: full-length GST-PRMT5 (UniProt O14744 1-637)
Experiment: pull-down

full-length GST-PRMT5, sequence (O14744 whole entry): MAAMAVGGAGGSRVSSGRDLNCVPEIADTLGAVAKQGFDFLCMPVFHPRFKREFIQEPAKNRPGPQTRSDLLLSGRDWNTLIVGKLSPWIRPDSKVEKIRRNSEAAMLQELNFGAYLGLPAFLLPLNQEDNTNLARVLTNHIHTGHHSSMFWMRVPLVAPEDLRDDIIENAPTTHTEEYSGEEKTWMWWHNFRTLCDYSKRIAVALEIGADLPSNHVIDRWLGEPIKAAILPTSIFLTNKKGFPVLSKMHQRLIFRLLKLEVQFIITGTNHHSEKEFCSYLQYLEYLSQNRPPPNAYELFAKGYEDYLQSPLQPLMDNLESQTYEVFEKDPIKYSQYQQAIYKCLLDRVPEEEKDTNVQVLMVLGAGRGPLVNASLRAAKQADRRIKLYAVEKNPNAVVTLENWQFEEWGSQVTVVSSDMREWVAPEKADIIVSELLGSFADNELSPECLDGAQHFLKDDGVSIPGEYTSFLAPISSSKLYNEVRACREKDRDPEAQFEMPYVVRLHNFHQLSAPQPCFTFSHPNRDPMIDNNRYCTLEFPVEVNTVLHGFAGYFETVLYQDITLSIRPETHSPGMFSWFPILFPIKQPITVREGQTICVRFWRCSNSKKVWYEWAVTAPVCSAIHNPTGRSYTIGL

binding result: binds
B1: full-length His-CAPG (natural protein)
chain: MYTAIPQSGSPFPGSVQDPGLHVWRVEKLKPVPVAQENQGVFFSGDSYLVLHNGPEEVSHLHLWIGQQSSRDEQGACAVLAVHLNTLLGERPVQHREVQGNESDLFMSYFPRGLKYQEGGVESAFHKTSTGAPAAIKKLYQVKGKKNIRATERALNWDSFNTGDCFILDLGQNIFAWCGGKSNILERNKARDLALAIRDSERQGKAQVEIVTDGEEPAEMIQVLGPKPALKEGNPEEDLTADKANAQAAALYKVSDATGQMNLTKVADSSPFALELLISDDCFVLDNGLCGKIYIWKGRKANEKERQAALQVAEGFISRMQYAPNTQVEILPQGHESPIFKQFFKDWK
